target: FGFR3 (UniProt P22607); test: phosphorylation enrichment, bacterial display (enrichment ratio); higher = better substrate or ligand; peptides without Tyr show the background
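For SH2 binding enrichment of the phosphorylated peptide, bacterial display in this document: peptide library displayed on the E. coli surface as eCPX fusions, selected cells deep-sequenced, score is each peptide's frequency after selection divided by its frequency in the input.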
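For phosphorylation enrichment, bacterial display in this document: 11-residue human phosphosite peptides and single-mutation variants displayed on the E. coli surface, counted by deep sequencing, each peptide's frequency after selection divided by its frequency in the unselected input library; frequency after pTyr selection over input frequency; kinase dosed for 20-30% of maximal phosphorylation in three min.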

Sequence of FGFR3 (P22607 whole entry, looked up, the tested form may be a part): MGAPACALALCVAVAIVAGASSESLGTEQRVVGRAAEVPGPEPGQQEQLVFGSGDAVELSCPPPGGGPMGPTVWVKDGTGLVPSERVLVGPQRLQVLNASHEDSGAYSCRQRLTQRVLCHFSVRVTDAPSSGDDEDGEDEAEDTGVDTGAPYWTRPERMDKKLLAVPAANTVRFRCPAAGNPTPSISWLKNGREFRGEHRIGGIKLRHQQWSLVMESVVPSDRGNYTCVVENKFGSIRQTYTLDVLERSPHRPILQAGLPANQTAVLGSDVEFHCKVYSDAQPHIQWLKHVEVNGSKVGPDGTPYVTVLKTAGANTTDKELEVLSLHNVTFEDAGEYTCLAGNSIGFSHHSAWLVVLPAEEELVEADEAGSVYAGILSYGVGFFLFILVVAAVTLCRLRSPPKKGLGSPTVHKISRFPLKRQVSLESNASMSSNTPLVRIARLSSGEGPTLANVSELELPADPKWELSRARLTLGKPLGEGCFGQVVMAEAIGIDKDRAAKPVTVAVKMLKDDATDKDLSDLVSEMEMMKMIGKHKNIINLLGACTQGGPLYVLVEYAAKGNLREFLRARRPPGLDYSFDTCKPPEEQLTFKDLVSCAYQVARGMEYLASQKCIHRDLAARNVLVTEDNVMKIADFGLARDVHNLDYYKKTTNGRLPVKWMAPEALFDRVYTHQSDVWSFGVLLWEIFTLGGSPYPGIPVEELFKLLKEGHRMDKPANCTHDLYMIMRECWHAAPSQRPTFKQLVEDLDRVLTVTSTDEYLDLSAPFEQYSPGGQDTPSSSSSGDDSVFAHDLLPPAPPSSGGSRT

Sequence | phosphorylation enrichment
TVEDHDYEGGI [TKT_Y563_Y563D] | 0.727
FEEDSYVERSQ [RET_Y905_K907E_YF] | 0.731
DDEESYENVPR [FCRL3_Y722_N721S] | 0.666
LVSCAYQVARG [FGFR1_Y605] | 0.577
ILKPDYQPLAV [HYDIN_Y1072_I1077V] | 0.667
GGTTMYPGIAD [ACTC1_Y308] | 0.576
PIPAAYNKFDQ [CDC73_Y290_R292K_YF] | 0.925
KLKRSYSSRDI [USP8_Y717_P720R] | 0.368
EEETDYTPVWC [UROD_Y30_G25E] | 0.876
NQELIYEGRRL [TBK1_Y354] | 0.808
DESEDCRDTVV [CNNM3_Y456_Y456C] | 0.723
GDYYRYLAEVA [YWHAG_Y133] | 9.01
SGGGLYRDMGA [CBX8_Y321] | 0.522
DYDHSYYFIAT [ESD_Y262_G257D] | 9.9
YQEPVYSVAFS [TBL1X_Y509_H504Y] | 5.72
KERNQYGGVMV [MMP21_Y347_E349G] | 0.475
SQETFYRVSNM [ABCD1_Y181_Q178E_YF] | 0.473

Sequence | phosphorylation enrichment
RSSGSYGGGGQ [HNRNPA1_Y341_P340S] | 0.485
PLDGEYFILQI [TP53_Y327_T329I] | 12.9
SSNLYYRWLTA [CNGA3_Y169] | 6.24
SCPANYFAFKI [FAM3D_Y65_P60S] | 5.33
GDKKAYVRLAP [RPL23A_Y137_E133D] | 0.497
ADLTEYLSTHY [UQCRC1_Y219] | 0.697
TLGPFYPSLLF [CRYAA_Y18_R21L] | 1.09
PDDPSYSLVDD [PSTPIP2_Y323_N322S] | 1.08
AVRYIYTIDGS [DCX_Y105_G100A] | 0.709
FADTAYNYRHG [PAH_Y166_I164T] | 0.601
GRQGIYTENKR [GPR143_Y231_E235K] | 0.477
ASFSLYEPAKM [MKI67_Y340_P338S] | 0.563
IKNSGYISQYL [EIF2AK3_Y585_R588Q] | 0.458
DYTEAYNPKIK [CLK1_Y305] | 0.592
KRLKDYLMVLQ [USP25_Y425_T427M] | 0.93
MSSLPYMKMIF [SLC4A11_Y853] | 0.706

target: SHP2-C SH2; test: SH2 binding enrichment of the phosphorylated peptide, bacterial display (enrichment ratio); higher = better substrate or ligand; peptides without Tyr show the background

Sequence | SH2 binding enrichment
FEEDSYVERSQ [RET_Y905_K907E_YF] | 0.618
DDEESYENVPR [FCRL3_Y722_N721S] | 0.77
ILKPDYQPLAV [HYDIN_Y1072_I1077V] | 0.8
PIPAAYNKFDQ [CDC73_Y290_R292K_YF] | 0.86
EEETDYTPVWC [UROD_Y30_G25E] | 0.791
DESEDCRDTVV [CNNM3_Y456_Y456C] | 0.887
DYDHSYYFIAT [ESD_Y262_G257D] | 0.589
YQEPVYSVAFS [TBL1X_Y509_H504Y] | 0.527
SQETFYRVSNM [ABCD1_Y181_Q178E_YF] | 0.807
RSSGSYGGGGQ [HNRNPA1_Y341_P340S] | 0.68
PLDGEYFILQI [TP53_Y327_T329I] | 0.794
SSNLYYRWLTA [CNGA3_Y169] | 0.763
GDKKAYVRLAP [RPL23A_Y137_E133D] | 0.757
ADLTEYLSTHY [UQCRC1_Y219] | 0.716
TLGPFYPSLLF [CRYAA_Y18_R21L] | 0.524
PDDPSYSLVDD [PSTPIP2_Y323_N322S] | 0.724
AVRYIYTIDGS [DCX_Y105_G100A] | 20.1
FADTAYNYRHG [PAH_Y166_I164T] | 0.973
GRQGIYTENKR [GPR143_Y231_E235K] | 0.762
ASFSLYEPAKM [MKI67_Y340_P338S] | 0.793
KRLKDYLMVLQ [USP25_Y425_T427M] | 1.36
MSSLPYMKMIF [SLC4A11_Y853] | 1.51

Now from value to sequence:

SH2 binding enrichment | Sequence
1.26 | TVEDHDYEGGI [TKT_Y563_Y563D]
0.728 | LVSCAYQVARG [FGFR1_Y605]
0.783 | GGTTMYPGIAD [ACTC1_Y308]
0.651 | KLKRSYSSRDI [USP8_Y717_P720R]
0.612 | NQELIYEGRRL [TBK1_Y354]
0.905 | GDYYRYLAEVA [YWHAG_Y133]
0.589 | SGGGLYRDMGA [CBX8_Y321]
0.854 | KERNQYGGVMV [MMP21_Y347_E349G]
0.996 | SCPANYFAFKI [FAM3D_Y65_P60S]
0.969 | IKNSGYISQYL [EIF2AK3_Y585_R588Q]
0.584 | DYTEAYNPKIK [CLK1_Y305]

target: Grb2 SH2 (UniProt P62993); test: as above

Sequence | SH2 binding enrichment
FEEDSYVERSQ [RET_Y905_K907E_YF] | 0.992
DDEESYENVPR [FCRL3_Y722_N721S] | 0.935
ILKPDYQPLAV [HYDIN_Y1072_I1077V] | 0.731
PIPAAYNKFDQ [CDC73_Y290_R292K_YF] | 0.946
EEETDYTPVWC [UROD_Y30_G25E] | 0.997
DESEDCRDTVV [CNNM3_Y456_Y456C] | 0.97
DYDHSYYFIAT [ESD_Y262_G257D] | 0.684
YQEPVYSVAFS [TBL1X_Y509_H504Y] | 0.781
SQETFYRVSNM [ABCD1_Y181_Q178E_YF] | 0.836
RSSGSYGGGGQ [HNRNPA1_Y341_P340S] | 0.777
PLDGEYFILQI [TP53_Y327_T329I] | 0.651
SSNLYYRWLTA [CNGA3_Y169] | 0.791
GDKKAYVRLAP [RPL23A_Y137_E133D] | 0.831
ADLTEYLSTHY [UQCRC1_Y219] | 1.13
TLGPFYPSLLF [CRYAA_Y18_R21L] | 0.588
PDDPSYSLVDD [PSTPIP2_Y323_N322S] | 1.29
AVRYIYTIDGS [DCX_Y105_G100A] | 0.979
FADTAYNYRHG [PAH_Y166_I164T] | 0.723
GRQGIYTENKR [GPR143_Y231_E235K] | 0.874
ASFSLYEPAKM [MKI67_Y340_P338S] | 1
KRLKDYLMVLQ [USP25_Y425_T427M] | 1.61
MSSLPYMKMIF [SLC4A11_Y853] | 1.21

Further lines, results first:

SH2 binding enrichment | Sequence
1.15 | TVEDHDYEGGI [TKT_Y563_Y563D]
0.883 | LVSCAYQVARG [FGFR1_Y605]
0.871 | GGTTMYPGIAD [ACTC1_Y308]
1.13 | KLKRSYSSRDI [USP8_Y717_P720R]
0.735 | NQELIYEGRRL [TBK1_Y354]
1.02 | GDYYRYLAEVA [YWHAG_Y133]
0.842 | SGGGLYRDMGA [CBX8_Y321]
0.74 | KERNQYGGVMV [MMP21_Y347_E349G]
1.12 | SCPANYFAFKI [FAM3D_Y65_P60S]
0.939 | IKNSGYISQYL [EIF2AK3_Y585_R588Q]
0.813 | DYTEAYNPKIK [CLK1_Y305]

target: c-Src SH2; test: as above

Sequence | SH2 binding enrichment
FEEDSYVERSQ [RET_Y905_K907E_YF] | 0.512
DDEESYENVPR [FCRL3_Y722_N721S] | 0.672
ILKPDYQPLAV [HYDIN_Y1072_I1077V] | 0.509
PIPAAYNKFDQ [CDC73_Y290_R292K_YF] | 0.509
EEETDYTPVWC [UROD_Y30_G25E] | 0.638
DESEDCRDTVV [CNNM3_Y456_Y456C] | 0.672
DYDHSYYFIAT [ESD_Y262_G257D] | 0.456
YQEPVYSVAFS [TBL1X_Y509_H504Y] | 2.93
SQETFYRVSNM [ABCD1_Y181_Q178E_YF] | 0.597
RSSGSYGGGGQ [HNRNPA1_Y341_P340S] | 0.457
PLDGEYFILQI [TP53_Y327_T329I] | 0.521
SSNLYYRWLTA [CNGA3_Y169] | 0.545
GDKKAYVRLAP [RPL23A_Y137_E133D] | 0.54
ADLTEYLSTHY [UQCRC1_Y219] | 0.638
TLGPFYPSLLF [CRYAA_Y18_R21L] | 0.366
PDDPSYSLVDD [PSTPIP2_Y323_N322S] | 3.29
AVRYIYTIDGS [DCX_Y105_G100A] | 0.76
FADTAYNYRHG [PAH_Y166_I164T] | 0.421
GRQGIYTENKR [GPR143_Y231_E235K] | 0.61
ASFSLYEPAKM [MKI67_Y340_P338S] | 0.613
KRLKDYLMVLQ [USP25_Y425_T427M] | 1.1
MSSLPYMKMIF [SLC4A11_Y853] | 1.71

Second part, the sequence after the results:

SH2 binding enrichment | Sequence
0.651 | TVEDHDYEGGI [TKT_Y563_Y563D]
0.644 | LVSCAYQVARG [FGFR1_Y605]
0.393 | GGTTMYPGIAD [ACTC1_Y308]
0.531 | KLKRSYSSRDI [USP8_Y717_P720R]
0.522 | NQELIYEGRRL [TBK1_Y354]
0.569 | GDYYRYLAEVA [YWHAG_Y133]
0.542 | SGGGLYRDMGA [CBX8_Y321]
0.525 | KERNQYGGVMV [MMP21_Y347_E349G]
0.823 | SCPANYFAFKI [FAM3D_Y65_P60S]
0.628 | IKNSGYISQYL [EIF2AK3_Y585_R588Q]
1.43 | DYTEAYNPKIK [CLK1_Y305]

From the supplement of paper PMC10065799, “High-throughput profiling of sequence recognition by tyrosine kinases and SH2 domains using bacterial peptide display” (eLife, 2023)
